Results from article PMC2645672, “Mechanism of Neuronal versus Endothelial Cell Uptake of Alzheimer's Disease Amyloid β Protein” (PLoS ONE, 2009).

Legend:
[1] = system: differentiated PC12 cells; conditions: cited from earlier work
[2] = system: wild type (WT) mouse brain slices; conditions: cited from earlier work
Procedure: The uptake of ^125I-Aβ40 in WT mouse brain slices at 4 or 37°C was determined following 15 min incubation in oxygenated KRB containing 5–900 ng/ml (0.02–3.5 µCi/ml) concentrations of ^125I-Aβ40. The 15 min incubation time was selected based on our earlier observations that ^125I-Aβ40 uptake in the brain slices was linear up to 15 mi ...

[3] = system: bovine brain microvascular endothelial (BBME) cells; test: Cellular uptake by flow cytometry in BBME cells; conditions: F-Aβ40 and AF633-Trf simultaneously, cells trypsinized
Procedure: Bovine brain microvascular endothelial (BBME) cells were obtained frozen from Cell Applications Inc. (San Diego, CA) and were grown in 75 cm^2 cell culture flasks coated with collagen. The growth medium was made of equal parts DMEM and F-12 Ham nutrient mix containing amphotericin B (2.5 µg/ml), HEPES (10 mM), donor horse serum (10%), penicillin (100 units/ml), and gentamicin sulphate (15 µm/ml). After reaching 70–80% confluency, the cells were harvested, seeded (80,000 cells/cm^2) on six-well cell culture plates coated with 0.01% rat tail collagen, and grown under 5% CO2 at 37°C.
(§1) In addition, flow cytometry studies were conducted to quantify the uptake of F-Aβ40 or F-Aβ42 and AF633-Trf by PC12 cells and BBME cells at 4°C or under ATP depleted conditions. At the end of these flow cytometry experiments, the cells were washed three times with ice-cold PBS, trypsinized, and centrifuged at 2000 ×g. The cell pellet was washed with and re-suspended in ice cold PBS, and analyzed.
(§2) FACScan (Becton Dickinson FACS canto, San Jose, CA) was equipped with 488 nm laser and 530/30 band-pass filter to analyze F-Aβ40 or F-Aβ42 as well as 633 nm laser and 660/20 band-pass filter to analyze AF633-Trf. […] The cellular fluorescence from this cell population was presented as histograms along with relevant statistical values such as geometric mean and coefficient of variance.

[4] = system: differentiated PC12 cells; test: Cellular uptake and localization by microscopy in differentiated PC12 cells; conditions: F-Aβ40 and AF633-Trf co-incubated, confocal
[5] = system: differentiated PC12 cells
[6] = system: differentiated PC12 cells; test: Cellular uptake by flow cytometry in differentiated PC12 cells; conditions: for Uptake at 4°C versus 37°C (histograms of cellular fluorescence), F-Aβ42 experiment: 15 µg/ml F-Aβ42 and 20 µg/ml AF633-Trf, 30 min, cells trypsinized
Procedure: Rat PC12 cells were plated on glass coverslips or coverslip-bottomed dishes and cultured in DMEM supplemented with: 10% fetal bovine serum, 5% horse serum, 4 mM glutamine, 200 units/ml penicillin, 200 µg/ml streptomycin, and 100 ng/ml nerve growth factor (NGF) (Harlan, Indianapolis, IN) at 37°C under 5% CO2. Uptake studies were conducted 5–7 days after plating, when the cells were well differentiated and the neurite growth was prominent.
The PC12 cells were dispersed in growth medium containing 100 ng/ml NGF (Harlan Bioproducts, Indianapolis, IN) and seeded at a density of 50,000/well in 6-well plates. On the seventh day, following sets of experiments were conducted on the differentiated PC-12 cells:
• To determine the linearity of F-Aβ40 uptake, PC-12 cells were pre-incubated in serum free DMEM for 30 min at 37°C and then incubated with DMEM solution containing 3–15 µg/ml F-Aβ40 for 30 min at 37°C. • To determine the saturability of F-Aβ40 uptake, the PC-12 cells were pre-incubated in 150 µg/ml of unlabeled Aβ40 for 30 min at 37°C, followed by a 30 min incubation in the same solution spiked with 15 µg/ml F-Aβ40.
At the end of these experiments, the cells were dissociated with trypsin and centrifuged at 2000 ×g. The cell pellet was washed with and re-suspended in ice cold PBS and analyzed by flow cytometry.
To examine the effect of temperature and cellular energy on the internalization of F-Aβ40 and F-Aβ42, the uptake studies were conducted at 4°C or under ATP depleted conditions. In the studies conducted at 4°C, steps outlined previously to investigate clathrin mediated endocytosis were repeated, but at 4°C. In ATP depletion studies, the PC12 cells or RPH neurons were pre-incubated for 30 min in glucose free DMEM containing 0.1% sodium azide and 50 mM 2-deoxy-D-glucose followed by the incubation with glucose free DMEM containing 20 µg/ml AF633-Trf and 15 µg/ml F-Aβ40 for 30 min at 37°C.
as §1, §2

Substance: 125I-Aβ40: human Aβ40 labeled with 125I using the chloramine-T procedure
- Dependence of internalization by differentiated PC12 cells on donor concentration [1]: linearly dependent upon the donor concentration
- Internalization by differentiated PC12 cells at 4°C [1]: internalized even at 4 °C
- Time course of uptake in brain slices [2]: linear up to 15 min

Substance: AF633-Trf: Alexa Fluor 633 labeled transferrin, a clathrin mediated endocytosis marker [reference compound]
- Cellular uptake in BBME cells at 4°C compared to 37°C (fluorescence intensities) [3]: decreased significantly
- Cellular location after 15 min incubation [4]: juxta-nuclear region
- Uptake in ATP depleted cells versus normal cells (microscopy) [5]: no detectable
- Uptake at 4°C versus 37°C (histograms of cellular fluorescence), F-Aβ42 experiment [6]: significantly lower

Substance: F-Aβ40: fluorescein labeled human Aβ40
- Cellular uptake in BBME cells at 4°C compared to 37°C (fluorescence intensities) [3]: decreased significantly
- Cellular location after 15 min incubation [4]: mainly confined to the cell membrane
- Cellular location at the end of 45 min incubation ([4]; 45 min): appeared to move into the cytosol
- Intensity in the cells by the end of 60 min incubation ([4]; 60 min): increased substantially
- Uptake in cells treated with filipin, inhibitor of caveolae mediated endocytosis [5]: not significantly affected
- Fluorescence intensity on co-incubation with unlabeled Aβ40 compared to F-Aβ40 alone (saturability) ([6]; 150 µg/ml unlabeled Aβ40 + 15 µg/ml F-Aβ40 vs 15 µg/ml F-Aβ40 alone, 37°C): decreased
- Dependence of accumulation on donor concentration ([6]; donor concentrations 3-15 µg/ml, 30 min at 37°C): linear with the donor concentrations

Substance: F-Aβ42: fluorescein labeled Aβ42
- Uptake at 4°C versus 37°C (histograms of cellular fluorescence), F-Aβ42 experiment [6]: not significantly different
